Test results: patent WO2005085862A1 (dated 2005)

Target: T1, human Glucose-regulated protein 78 (Grp78) (human, UniProt P11021 19-654)
T1 construct: whole, on cells; also called Grp78/Bip; cell surface localized Grp78
Assay: western blot of whole cell extracts with purified scFv

T1 sequence (P11021 19-654): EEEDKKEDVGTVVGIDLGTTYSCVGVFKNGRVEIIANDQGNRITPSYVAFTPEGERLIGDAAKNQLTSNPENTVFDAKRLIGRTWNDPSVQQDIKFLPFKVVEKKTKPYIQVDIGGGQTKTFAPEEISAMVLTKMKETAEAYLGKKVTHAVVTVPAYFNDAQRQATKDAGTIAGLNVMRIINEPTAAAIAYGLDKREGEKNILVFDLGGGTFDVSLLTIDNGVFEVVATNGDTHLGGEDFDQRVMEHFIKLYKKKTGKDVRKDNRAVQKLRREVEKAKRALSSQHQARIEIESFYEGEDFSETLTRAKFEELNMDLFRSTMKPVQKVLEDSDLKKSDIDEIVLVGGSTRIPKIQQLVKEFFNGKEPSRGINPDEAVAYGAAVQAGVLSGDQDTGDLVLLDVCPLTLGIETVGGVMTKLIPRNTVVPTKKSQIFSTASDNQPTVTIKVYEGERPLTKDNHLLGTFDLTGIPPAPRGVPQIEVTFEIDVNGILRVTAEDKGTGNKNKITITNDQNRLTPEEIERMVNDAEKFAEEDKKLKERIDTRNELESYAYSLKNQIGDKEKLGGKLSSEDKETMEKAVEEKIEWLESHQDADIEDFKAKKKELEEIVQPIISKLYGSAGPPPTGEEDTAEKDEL

binding result: binds
B1: Grp78-scFv clone-19 (scFv)
scFv: EVQLVESGGGVVQPGRSLRLSCAASGFTFSSYGMHWVRQAPGKGLEWVAVISYDGSNKYYADSVKGRFTISRDNSKNTLYLQMNSLRAEDTAVYYCARKINSTKEVWGQGTLVTVSSGGGGSGGGGSGGSALQSVLTQPPSASGTPGQRVTISCSGSSSNIGSNYVYWYQQLPGTAPKLLIYRNNQRPSGVPDRFSGSKSGTSASLAISGLRSEDEADYYCAAWDDSLNPLVVFGGGTKLTVLGAAAHHHHHHGAAEQN
notes: Tested as soluble scFv made in E. coli HB2151 and purified on a Ni column, apparent size about 29 kDa; It was detected through its c-myc tag with mAb 9E10; also called anti-Grp78 scFv-19; scFv-19
